# Assay results as given in patent US8273855.
# Key:
# Assay in all cases: cell-based or functional assay
# [1] = target: Notch1 of mouse neural stem cells (NSCs) (mouse) (UniProt Q01705)
# [2] = target: Notch on primary rat oligodendrocytes and oligodendrocyte precursor cells (rat) (UniProt Q07008)
# [3] = target: myc-tagged full-length mouse Notch1 on transfected OLN cells (mouse) (UniProt Q01705)
# Chain of myc-tagged full-length mouse Notch1 on transfected OLN cells (mouse) (Q01705 19-2531): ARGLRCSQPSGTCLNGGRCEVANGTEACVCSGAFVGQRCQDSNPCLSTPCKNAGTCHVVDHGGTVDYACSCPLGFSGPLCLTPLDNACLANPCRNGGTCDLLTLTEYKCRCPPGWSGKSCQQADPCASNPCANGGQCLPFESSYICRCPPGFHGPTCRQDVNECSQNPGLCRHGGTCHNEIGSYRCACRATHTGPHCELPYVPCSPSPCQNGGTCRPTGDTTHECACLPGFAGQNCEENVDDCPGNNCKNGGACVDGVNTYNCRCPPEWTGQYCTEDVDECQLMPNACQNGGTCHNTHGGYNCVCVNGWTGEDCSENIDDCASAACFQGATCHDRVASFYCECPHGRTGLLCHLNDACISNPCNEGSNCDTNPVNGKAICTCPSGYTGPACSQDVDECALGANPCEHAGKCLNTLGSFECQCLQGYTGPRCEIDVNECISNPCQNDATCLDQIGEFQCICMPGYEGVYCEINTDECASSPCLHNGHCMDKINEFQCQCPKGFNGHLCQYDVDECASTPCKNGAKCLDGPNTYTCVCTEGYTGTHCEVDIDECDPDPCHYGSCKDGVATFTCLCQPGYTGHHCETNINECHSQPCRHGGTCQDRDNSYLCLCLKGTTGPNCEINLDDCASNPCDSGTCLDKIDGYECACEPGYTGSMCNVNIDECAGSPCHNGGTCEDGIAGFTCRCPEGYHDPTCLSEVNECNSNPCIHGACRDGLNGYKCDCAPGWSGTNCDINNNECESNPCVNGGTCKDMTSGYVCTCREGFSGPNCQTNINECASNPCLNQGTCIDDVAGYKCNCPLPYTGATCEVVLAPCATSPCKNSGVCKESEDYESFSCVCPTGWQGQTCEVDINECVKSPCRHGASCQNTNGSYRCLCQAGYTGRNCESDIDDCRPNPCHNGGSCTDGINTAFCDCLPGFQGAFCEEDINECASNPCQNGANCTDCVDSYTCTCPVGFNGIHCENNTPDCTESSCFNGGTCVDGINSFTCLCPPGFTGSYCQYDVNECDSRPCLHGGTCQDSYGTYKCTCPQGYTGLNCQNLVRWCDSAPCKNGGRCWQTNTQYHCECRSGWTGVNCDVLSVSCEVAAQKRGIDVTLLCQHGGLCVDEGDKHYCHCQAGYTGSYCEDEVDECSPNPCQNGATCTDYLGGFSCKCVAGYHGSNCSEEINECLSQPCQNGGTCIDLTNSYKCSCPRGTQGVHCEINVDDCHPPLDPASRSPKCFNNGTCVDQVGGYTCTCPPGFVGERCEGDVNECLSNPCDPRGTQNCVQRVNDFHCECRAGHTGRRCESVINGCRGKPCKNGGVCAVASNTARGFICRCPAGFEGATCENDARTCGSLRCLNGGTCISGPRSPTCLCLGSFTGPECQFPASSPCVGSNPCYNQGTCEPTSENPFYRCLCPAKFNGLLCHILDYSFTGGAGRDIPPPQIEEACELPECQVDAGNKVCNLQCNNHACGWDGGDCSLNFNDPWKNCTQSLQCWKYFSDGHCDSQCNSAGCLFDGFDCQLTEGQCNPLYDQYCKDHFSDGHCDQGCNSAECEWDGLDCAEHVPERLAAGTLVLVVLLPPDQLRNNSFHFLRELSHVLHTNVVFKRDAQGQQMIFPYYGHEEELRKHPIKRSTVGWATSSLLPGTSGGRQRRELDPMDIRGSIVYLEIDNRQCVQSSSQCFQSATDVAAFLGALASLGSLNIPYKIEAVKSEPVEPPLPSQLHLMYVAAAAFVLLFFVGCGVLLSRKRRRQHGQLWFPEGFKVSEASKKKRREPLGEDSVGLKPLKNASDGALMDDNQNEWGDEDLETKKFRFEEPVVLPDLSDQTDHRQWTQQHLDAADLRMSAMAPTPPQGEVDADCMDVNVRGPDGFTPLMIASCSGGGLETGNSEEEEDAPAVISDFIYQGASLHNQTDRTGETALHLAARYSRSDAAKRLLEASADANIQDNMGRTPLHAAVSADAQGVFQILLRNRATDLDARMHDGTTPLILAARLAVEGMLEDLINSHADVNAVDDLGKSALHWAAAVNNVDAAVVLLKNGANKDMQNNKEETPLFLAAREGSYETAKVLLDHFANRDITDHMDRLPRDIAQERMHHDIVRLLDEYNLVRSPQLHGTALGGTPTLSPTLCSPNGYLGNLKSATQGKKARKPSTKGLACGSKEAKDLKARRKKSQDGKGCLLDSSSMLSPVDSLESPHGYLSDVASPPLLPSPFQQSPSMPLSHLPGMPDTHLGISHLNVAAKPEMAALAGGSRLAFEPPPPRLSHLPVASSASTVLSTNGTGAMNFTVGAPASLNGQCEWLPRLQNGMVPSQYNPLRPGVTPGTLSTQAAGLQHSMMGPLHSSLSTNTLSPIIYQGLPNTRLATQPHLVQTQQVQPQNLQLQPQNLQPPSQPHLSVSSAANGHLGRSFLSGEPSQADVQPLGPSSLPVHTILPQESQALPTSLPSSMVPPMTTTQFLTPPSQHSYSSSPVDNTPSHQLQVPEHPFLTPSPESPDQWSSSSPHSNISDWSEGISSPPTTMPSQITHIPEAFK
# Chain of Notch on primary rat oligodendrocytes and oligodendrocyte precursor cells (rat) (Q07008 19-2531): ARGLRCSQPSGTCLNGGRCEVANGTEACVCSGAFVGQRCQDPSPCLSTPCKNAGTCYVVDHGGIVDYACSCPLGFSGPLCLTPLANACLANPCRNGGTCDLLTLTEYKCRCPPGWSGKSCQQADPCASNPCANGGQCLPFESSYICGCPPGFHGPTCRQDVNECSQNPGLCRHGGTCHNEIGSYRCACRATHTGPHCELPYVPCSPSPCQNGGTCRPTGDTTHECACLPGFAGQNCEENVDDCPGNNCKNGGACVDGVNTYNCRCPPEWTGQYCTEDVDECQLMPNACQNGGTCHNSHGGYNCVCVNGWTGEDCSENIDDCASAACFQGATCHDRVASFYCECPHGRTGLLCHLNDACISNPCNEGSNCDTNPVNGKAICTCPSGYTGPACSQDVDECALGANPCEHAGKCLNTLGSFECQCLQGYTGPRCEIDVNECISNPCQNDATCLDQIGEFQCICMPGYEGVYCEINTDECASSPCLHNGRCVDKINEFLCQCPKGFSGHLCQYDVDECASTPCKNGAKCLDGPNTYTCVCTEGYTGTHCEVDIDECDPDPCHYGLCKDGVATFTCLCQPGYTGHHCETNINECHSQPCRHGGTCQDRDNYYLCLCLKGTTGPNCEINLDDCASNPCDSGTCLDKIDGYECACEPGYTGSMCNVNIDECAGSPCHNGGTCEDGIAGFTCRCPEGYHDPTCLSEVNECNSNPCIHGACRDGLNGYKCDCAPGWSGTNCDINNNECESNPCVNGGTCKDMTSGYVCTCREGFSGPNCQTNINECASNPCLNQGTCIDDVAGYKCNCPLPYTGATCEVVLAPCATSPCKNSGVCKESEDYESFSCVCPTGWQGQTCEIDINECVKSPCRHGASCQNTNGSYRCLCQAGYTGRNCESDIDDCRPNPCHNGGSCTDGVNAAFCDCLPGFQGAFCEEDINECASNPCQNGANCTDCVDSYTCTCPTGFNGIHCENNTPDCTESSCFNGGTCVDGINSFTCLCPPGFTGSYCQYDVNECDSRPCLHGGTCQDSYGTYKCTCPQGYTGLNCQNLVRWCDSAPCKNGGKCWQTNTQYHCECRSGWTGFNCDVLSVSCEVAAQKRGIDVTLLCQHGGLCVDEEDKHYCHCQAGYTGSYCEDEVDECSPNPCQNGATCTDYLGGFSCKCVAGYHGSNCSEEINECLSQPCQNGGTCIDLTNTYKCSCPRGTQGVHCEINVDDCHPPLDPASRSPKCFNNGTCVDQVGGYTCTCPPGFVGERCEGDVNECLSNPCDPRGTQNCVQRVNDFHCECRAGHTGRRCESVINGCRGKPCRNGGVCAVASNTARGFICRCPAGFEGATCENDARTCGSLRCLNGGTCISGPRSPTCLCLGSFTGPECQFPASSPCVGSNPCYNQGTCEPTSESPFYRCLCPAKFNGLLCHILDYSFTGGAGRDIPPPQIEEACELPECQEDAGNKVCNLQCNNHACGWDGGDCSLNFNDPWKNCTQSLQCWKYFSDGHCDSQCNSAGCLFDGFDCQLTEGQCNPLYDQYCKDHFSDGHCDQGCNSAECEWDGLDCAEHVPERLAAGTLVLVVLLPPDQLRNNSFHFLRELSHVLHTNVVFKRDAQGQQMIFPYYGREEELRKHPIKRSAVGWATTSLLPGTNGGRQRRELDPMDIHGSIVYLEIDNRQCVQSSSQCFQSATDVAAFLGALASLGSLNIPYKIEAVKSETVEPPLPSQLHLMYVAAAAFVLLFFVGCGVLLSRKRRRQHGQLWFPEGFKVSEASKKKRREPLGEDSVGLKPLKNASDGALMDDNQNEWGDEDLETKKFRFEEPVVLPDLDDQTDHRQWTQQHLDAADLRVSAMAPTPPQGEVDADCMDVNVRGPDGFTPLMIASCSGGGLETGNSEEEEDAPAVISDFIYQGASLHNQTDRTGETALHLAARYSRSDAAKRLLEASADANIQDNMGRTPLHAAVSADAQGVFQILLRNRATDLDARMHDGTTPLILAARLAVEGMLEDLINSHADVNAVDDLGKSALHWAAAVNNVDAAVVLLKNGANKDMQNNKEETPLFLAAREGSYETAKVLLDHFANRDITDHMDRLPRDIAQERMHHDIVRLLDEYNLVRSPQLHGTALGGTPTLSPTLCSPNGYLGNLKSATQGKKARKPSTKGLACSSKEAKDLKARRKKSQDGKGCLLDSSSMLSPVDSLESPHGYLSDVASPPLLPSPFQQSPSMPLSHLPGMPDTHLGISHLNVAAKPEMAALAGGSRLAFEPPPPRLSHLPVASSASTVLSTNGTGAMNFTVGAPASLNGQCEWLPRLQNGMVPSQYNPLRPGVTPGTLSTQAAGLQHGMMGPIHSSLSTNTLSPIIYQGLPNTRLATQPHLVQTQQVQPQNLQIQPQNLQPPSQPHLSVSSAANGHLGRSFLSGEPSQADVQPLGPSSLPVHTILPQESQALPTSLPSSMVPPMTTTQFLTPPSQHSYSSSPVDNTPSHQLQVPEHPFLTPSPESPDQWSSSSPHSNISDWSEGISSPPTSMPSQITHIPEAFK
# Chain of Notch1 of mouse neural stem cells (NSCs) (mouse) (Q01705 19-2531 limits assumed): as the sequence (Q01705 19-2531) above
substance,measurement,setting,value
"NB-3 (recombinant protein, as substrate or soluble; tag not stated at these places) (from UniProt P97528 20-999) (ligand)","OL generation from NSCs, flow cytometry",[1],2 fold
same,"MAG transcripts, real-time PCR, primary OLs",[2],24 fold
same,OPC differentiation into CNPase-positive OLs,[2],75%
same,MAG staining intensity,[3],2.5 fold
